In paper PMC7861488:
Where two headings read alike, the source gives them in different places.

Legend:
Test in all cases: graphene FET
TNF-alpha [1] = molecular target: T1, TNF-alpha (UniProt P01375 77-233)
TNF-alpha [2] = molecular target: T1, TNF-alpha; remark: listed apart in the source
TNF-alpha [3] = molecular target: T1, TNF-alpha; remark: listed apart in the source
TNF-alpha [4] = molecular target: T1, TNF-alpha; remark: listed apart in the source
TNF-alpha [5] = molecular target: T1, TNF-alpha; remark: listed apart in the source
TNF-alpha [6] = molecular target: T1, TNF-alpha; remark: listed apart in the source
TNF-alpha [7] = molecular target: T1, TNF-alpha; remark: listed apart in the source
TNF-alpha [8] = molecular target: T1, TNF-alpha; remark: listed apart in the source
TNF-alpha [9] = molecular target: T1, TNF-alpha; remark: listed apart in the source

T1 sequence (P01375 77-233): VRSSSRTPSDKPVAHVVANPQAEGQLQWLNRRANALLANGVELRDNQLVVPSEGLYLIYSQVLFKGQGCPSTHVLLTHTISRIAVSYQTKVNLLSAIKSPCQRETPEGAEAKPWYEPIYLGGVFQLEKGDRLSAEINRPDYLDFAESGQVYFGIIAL

Binder: TGGTGGATGGCGCAGTCGGCGACAA (ssDNA, 5'-NH2 (coupled to PASE on graphene)) [VR11]
- Kd (TNF-alpha [1]): 15.1 nM
- Kd (TNF-alpha [2]): 14.2 nM
- Kd (TNF-alpha [3]): 14.3 nM
- Kd (TNF-alpha [4]): 15.5 nM
- Kd (TNF-alpha [5]): 14.7 nM
- Kd (TNF-alpha [6]): 15.6 nM
- Kd (TNF-alpha [7]): 15.1 nM
- Kd (TNF-alpha [8]): 14.2 nM
- Kd (TNF-alpha [9]): 15 nM
